Like-named read-outs stand apart in the source and are kept apart here.

Assay [1] deals with mCherry-RalB (UniProt P11234). Kind of assay: co-IP.
Assay [2] has as its target GFP-RalA (UniProt P11233). Kind of assay: pull-down.
Assay [3] concerns the target GFP-RalB (UniProt P11234). Kind of assay: pull-down.
The target in assay [4] is GFP-RalA (UniProt P11233). Briefly: pull-down. This is another data set of the same source.
Assay [5] addresses GFP-RalB (UniProt P11234). Kind of assay: pull-down. The source holds these as a separate data set.
In assay [6] the target is angiomotin (GFP-fused bait) (UniProt Q4VCS5). Kind of assay: pull-down.
Chain of UniProt Q4VCS5 (Q4VCS5 whole entry, the tested form may be a part): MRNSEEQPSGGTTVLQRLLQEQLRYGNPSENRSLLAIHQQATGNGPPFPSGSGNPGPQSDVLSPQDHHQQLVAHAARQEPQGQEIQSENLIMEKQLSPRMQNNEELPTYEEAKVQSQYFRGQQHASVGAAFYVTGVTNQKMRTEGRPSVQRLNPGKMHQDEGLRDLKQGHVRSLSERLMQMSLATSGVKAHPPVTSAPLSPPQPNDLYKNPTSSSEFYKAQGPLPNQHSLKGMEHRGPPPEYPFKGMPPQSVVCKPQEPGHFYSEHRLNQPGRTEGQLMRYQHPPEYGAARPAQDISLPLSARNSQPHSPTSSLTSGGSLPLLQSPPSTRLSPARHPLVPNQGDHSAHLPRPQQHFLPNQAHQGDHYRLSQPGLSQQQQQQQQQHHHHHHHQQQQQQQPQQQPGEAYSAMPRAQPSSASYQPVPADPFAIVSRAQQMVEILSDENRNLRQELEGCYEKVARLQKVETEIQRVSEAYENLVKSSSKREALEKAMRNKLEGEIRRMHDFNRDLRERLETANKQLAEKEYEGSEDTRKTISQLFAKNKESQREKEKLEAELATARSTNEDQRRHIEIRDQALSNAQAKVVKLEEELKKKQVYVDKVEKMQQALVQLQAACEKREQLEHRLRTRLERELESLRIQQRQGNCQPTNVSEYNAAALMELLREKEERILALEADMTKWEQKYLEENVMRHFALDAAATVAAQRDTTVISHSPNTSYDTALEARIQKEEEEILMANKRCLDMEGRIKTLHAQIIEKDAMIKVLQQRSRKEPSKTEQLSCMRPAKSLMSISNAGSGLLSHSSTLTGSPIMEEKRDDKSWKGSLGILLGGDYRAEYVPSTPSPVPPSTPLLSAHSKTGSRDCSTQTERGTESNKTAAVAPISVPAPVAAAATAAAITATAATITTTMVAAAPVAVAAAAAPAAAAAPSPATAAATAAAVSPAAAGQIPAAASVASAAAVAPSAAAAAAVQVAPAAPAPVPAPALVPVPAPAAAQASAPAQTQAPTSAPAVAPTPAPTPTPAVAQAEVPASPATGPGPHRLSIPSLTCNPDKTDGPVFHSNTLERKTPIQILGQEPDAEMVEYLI

Chain of UniProt P11233 (P11233 whole entry): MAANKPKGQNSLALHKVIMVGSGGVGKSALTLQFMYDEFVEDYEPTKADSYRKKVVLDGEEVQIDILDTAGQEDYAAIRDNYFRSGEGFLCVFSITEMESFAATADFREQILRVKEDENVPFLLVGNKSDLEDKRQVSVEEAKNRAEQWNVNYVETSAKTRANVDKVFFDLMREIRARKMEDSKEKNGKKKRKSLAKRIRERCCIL

Consider “Merlin-GFP (wild type) (from UniProt P35240 1-595) (natural protein)”, for which, in assay [1], the percent reduction of RalB binding to Exo84 amounted to 50% and the percent reduction of RalB binding to Sec5 is 50%.
For the substance “Merlin-NanoLuc (from UniProt P35240 1-595) (natural protein)”, the fold binding over the GFP control in assay [2] was more than 50 fold; in assay [3], more than 50 fold; in assay [4], 7 fold; in assay [5], 7 fold; in assay [6] it was more than 65 fold.

(Values after article doi:10.1101/2025.06.13.659557.)
